Source: patent publication US6916472B2, “PON3 and uses thereof” (Regents of the University of Michigan, priority 2000, dated 2005)

What was measured:
[1] = Statinase activity of samples of BL21(DE3) culture expressing rPON3; format: biochemical; settings: culture sample
Protocol: (§1) The hydrolysis of the statin lactones (mevastatin, lovastatin and simvastatin) was analyzed by high performance liquid chromatography (HPLC) using a Beckman System Gold HPLC with a Model 126 Programmable Solvent Module, a Model 168 Diode Array Detector set at 238 nm, a Model 7125 Rheodyne manual injector valve with a 20 μl loop, and a Beckman ODS Ultrasphere column (C 18, 250×4.6 mm, 5 μm). Lovastatin (Mevacor) and simvastatin were purchased as 20 mg tablets from Merck, from which the lactones were extracted with chloroform, evaporated to dryness and redissolved in methanol. Mevastatin was purchased from Sigma.
In a final volume of 1 ml, 10-200 μl of enzyme solution and 10 μl of substrate solution in methanol (0.5 mg/ml) were incubated at 25° C. in 50 mM Tris/HCl (pH 7.6), 1 mM CaCl2. Aliquots (100 μl) were removed at specified times and added to acetonitrile (100 μl), vortexed, and centrifuged for one minute at maximum speed (Beckman microfuge). The supernatants were poured into new tubes, capped and stored on ice until HPLC analysis.
(§2) Samples were eluted isocratically at a flow rate of 1.0 ml/min with a mobile phase consisting of the following: A=acetic acid/acetonitrile/water (2:249:249, v/v/v) and B=acetonitrile, in A/B ratios of 50/50, 45/55 and 40/60 for mevastatin, lovastatin and simvastatin, respectively. Under the above conditions the retention times for the carboxylic acid formed and the lactone substrate were as follows: 4.5/6.4 min (mevastatin), 4.4/5.6 min (lovastatin) and 5.4/7.7 min (simvastatin), respectively. Response factors for the acid products were calculated from the peak heights after complete alkaline hydrolysis of the lactones in 0.02 M NAOH for 2-24 hours at 25° C.
This Example describes the expression of rabbit PON3 protein in bacteria. The endogenous NcoI site at the translation start site, and an engineered XhoI site in the 3′ UTR were used to clone the rPON3 cDNA into the bacterial expression vector pET24d+. The resulting vector (prPON3/pET24d) was transformed into bacterial BL21(DE3) cells. LB broth supplemented with […] Kanamycin was inoculated with a single colony and the bacteria were grown at 37° C. When the culture reached an OD600 of 0.7, IPTG (1 mM) was added and growth continued. Samples of the culture were taken at the time of induction and 1, 2, 4, and 16 hours post-induction. Samples were electrophoresed through a 10% SDS-PAGE gel and Western blotted with a human PON1 antibody. An inducible, 40 kDa band was visible in the 1, 2, 4, and 16 time point lanes that aligned with a rPON3 standard. The samples were also assayed and found to have 257, 8663, 6178, 5872, and 8436 U/ml statinase activity for time points 0, 1, 2, 4, and 16 respectively.

LDL = experiment: Protection of LDL against copper-induced oxidation (conjugated dienes, lipid peroxides); format: biochemical, rabbit; settings: LDL 0.1 mg protein/ml, 2-10 μM CuSO4, up to 5 h at 37° C.
Protocol: In one illustrative example (Example 5) of the present invention, the ability of PON3 to protect against LDL oxidation was assayed. In this example, LDL oxidation was induced by the incubation of the lipoprotein with 2-10 μM CuSO4 in the air, in the absence or presence of PON3 or PON 1, for up to 5 h at 37° C. The kinetics of lipoprotein oxidation was followed by monitoring the conjugated dienes formation at 234 nm (Esterbauer et al., Free Radical Res Commun, 6:67-75 [1989]) using a quartz microtiter plate in a SPECTRAmax® 190 plate reader (Molecular Devices). Lipoprotein oxidation was also determined by the lipid peroxides test, which analyzes lipid peroxides by their capacity to convert iodide to iodine, as measured photometrically at 365 nm (E1-Saadani et al., J Lipid Res, 30:627-630 [1989]).
LDL were isolated by ultracentrifugation as described above (Example 4). […] The kinetics of lipoprotein oxidation was followed by monitoring the conjugated dienes formation at 234 nm (Esterbauer et al., Free Radical Res Commun, 6:67-75 [1989]) using a quartz microtiter plate in a SPECTRAmax 190 plate reader (Molecular Devices). Lipoprotein oxidation was also determined by the lipid peroxides test, which analyzes lipid peroxides by their capacity to convert iodide to iodine, as measured photometrically at 365 nm (E1-Saadani et al., J Lipid Res, 30:627-630 [1989]).

[2] = Lactonase activity of wild type and mutant rPON3 in expression media of transfected 293T cells; format: biochemical; settings: Lovastatin hydrolysis; based on quantitation of western blot
Protocol: as §1, with “Sigma. […]” for “Sigma.”
as §2, with “Under the above conditions the retention times for the carboxylic acid formed and the lactone substrate were as follows: 4.5/6.4 min (mevastatin), 4.4/5.6 min (lovastatin) and 5.4/7.7 min (simvastatin), respectively.” left out
Expression media from the transient transfection of mutant clones into 293T cells was analyzed for activity towards the lactone Lovastatin up to 4 days post transfection.
Specific activities were calculated based on quantitation of the western blot in FIG. 10. […]

[3] = system: mice given LD100 dose of LPS; settings: cited from earlier work

B1: rPON3: recombinant rabbit PON3 expressed in 293T cells or E. coli BL21(DE3) (protein)
chain: AKLLLLTLLGASLAFVGERLLAFRNSFGAVQELEPVEPQNCVLIEGLENGSEDIDILPSGLAFISSGLKYPGMPNFAPDEPGKIFLIDMNEKNPRAQELEISNGFEKESFNPHGISTFIDKDHTVYLYVVNHPHMKSTVEIFKFEEQQRSLVHLKTIKHELLKSVNNIVVLGPEQFYATRDHYFTNYVLALLEMFLDLHWTSVLFYSPKEVKVVAKGFSSANGITVSLDKKYVYVADATAKNVHVMEKHDNWDLTELKVIHLDTLVDNLSVDPATGDILAGCHPNGMKLLNYNPEDPPGSEVLRIQNVLSEKPRVSTVYTNDGSVLQGSTVASVYQGKILIGTIFHKTLYCVL
- statinase activity ([1]; 1 hour post-induction): 8663 U/ml
- statinase activity ([1]; 2 hours post-induction): 6178 U/ml
- statinase activity ([1]; 4 hours post-induction): 5872 U/ml
- statinase activity ([1]; 16 hours post-induction): 8436 U/ml
- statinase activity ([1]; time point 0 (time of IPTG induction)): 257 U/ml

B2: PON3: paroxonase 3 polypeptide purified from rabbit serum, 40 kDa, SEQ ID NO:8 (protein, listed as Oryctolagus cuniculus)
chain: MAKLLLLTLLGASLAFVGERLLAFRNSFGAVQELEPVEPQNCVLIEGLENGSEDIDILPSGLAFISSGLKYPGMPNFAPDEPGKIFLIDMNEKNPRAQELEISNGFEKESFNPHGISTFIDKDHTVYLYVVNHPHMKSTVEIFKFEEQQRSLVHLKTIKHELLKSVNNIVVLGPEQFYATRDHYFTNYVLALLEMFLDLHWTSVLFYSPKEVKVVAKGFSSANGITVSLDKKYVYVADATAKNVHVMEKHDNWDLTELKVIHLDTLVDNLSVDPATGDILAGCHPNGMKLLNYNPEDPPGSEVLRIQNVLSEKPRVSTVYTNDGSVLQGSTVASVYQGKILIGTIFHKTLYCVL
- inhibiting conjugated diene and lipid peroxide formation, compared with PON1 (LDL): significantly better

B3: L281W: site-directed single amino acid change mutant of rabbit PON3, SEQ ID NO:14 (protein, listed as Oryctolagus cuniculus)
chain: MAKLLLLTLLGASLAFVGERLLAFRNSFGAVQELEPVEPQNCVLIEGLENGSEDIDILPSGLAFISSGLKYPGMPNFAPDEPGKIFLIDMNEKNPRAQELEISNGFEKESFNPHGISTFIDKDHTVYLYVVNHPHMKSTVEIFKFEEQQRSLVHLKTIKHELLKSVNNIVVLGPEQFYATRDHYFTNYVLALLEMFLDLHWTSVLFYSPKEVKVVAKGFSSANGITVSLDKKYVYVADATAKNVHVMEKHDNWDLTELKVIHLDTLVDNLSVDPATGDIWAGCHPNGMKLLNYNPEDPPGSEVLRIQNVLSEKPRVSTVYTNDGSVLQGSTVASVYQGKILIGTIFHKTLYCVL
- specific activity compared to the wild type (fraction) [2]: about ⅓

B4: K243H: site-directed single amino acid change mutant of rabbit PON3, SEQ ID NO:12 (protein, listed as Oryctolagus cuniculus)
chain: MAKLLLLTLLGASLAFVGERLLAFRNSFGAVQELEPVEPQNCVLIEGLENGSEDIDILPSGLAFISSGLKYPGMPNFAPDEPGKIFLIDMNEKNPRAQELEISNGFEKESFNPHGISTFIDKDHTVYLYVVNHPHMKSTVEIFKFEEQQRSLVHLKTIKHELLKSVNNIVVLGPEQFYATRDHYFTNYVLALLEMFLDLHWTSVLFYSPKEVKVVAKGFSSANGITVSLDKKYVYVADATAHNVHVMEKHDNWDLTELKVIHLDTLVDNLSVDPATGDILAGCHPNGMKLLNYNPEDPPGSEVLRIQNVLSEKPRVSTVYTNDGSVLQGSTVASVYQGKILIGTIFHKTLYCVL
- specific activity compared to the wild type (fraction) [2]: about ⅓

B5: human PON1: purified human PON1 (paraoxonase 1), literature study of LaDu et al. (protein, UniProt P27169 2-355, looked up)
Serum …: AKLIALTLLGMGLALFRNHQSSYQTRLNALREVQPVELPNCNLVKGIETGSEDLEILPNGLAFISSGLKYPGIKSFNPNSPGKILLMDLNEEDPTVLELGITGSKFDVSSFNPHGISTFTDEDNAMYLLVVNHPDAKSTVELFKFQEEEKSLLHLKTIRHKLLPNLNDIVAVGPEHFYGTNDHYFLDPYLQSWEMYLGLAWSYVVYYSPSEVRVVAEGFDFANGINISPDGKYVYIAELLAHKIHVYEKHANWTLTPLKSLDFNTLVDNISVDPETGDLWVGCHPNGMKIFFYDSENPPASEVLRIQNILTEEPKVTQVYAENGTVLQGSTVASVYKGKLLIGTVFHKALYCEL
- survival, pretreated animals ([3]; i.p. injection before LD100 dose of LPS): 60%
- survival, post-treated animals ([3]; i.p. injection up to 2 hours after LD100 dose of LPS): 30%
